Test results taken from the supplement of paper PMC10201428.
± gives the standard deviation of the averaged measurements.

B1: library; a variant is named by its letters at N, in order (parent)
chain: AATGTTGTTGATGCAACCATAAAGTGATATTTAATAATTATTTATAATCAGCAACTTAACCACAAAACAACCATATATTGATATNTCACAAAACAACCATAANTTGATATTTTTGTGAATCGAGTATTTCAGCAAAACTACTGCAGTAAGAA

How the values were obtained:
[1] = variants of: B1; experiment: relative integration efficiency (T-LR orientation) vs wild-type transposon end (log2 (normalized fold change)); transposon end mutated: left end; higher = more efficient transposition; conditions: with VchCAST RNA-guided transposition machinery (E. coli BL21(DE3) host, lacZ target)
How it was run: (§1)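 Pools of 1549 left-end or 1849 right-end barcoded transposon variants were cloned into a pUC57 mini-transposon donor and co-transformed into E. coli BL21(DE3) with a T7-driven effector plasmid carrying a CRISPR array, tniQ-cas8-cas7-cas6 and tnsA-tnsB-tnsC. Plating used 0.1 mM IPTG at 37°C for 18 h, and input plasmids and genomic integration junctions were PCR-amplified for Illumina sequencing, with two biological output replicates and four reference barcodes. Relative integration efficiency is the log-transformed fold change of output over input barcode abundance, normalised to the reference barcodes.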

[2] = variants of: B1; experiment: relative integration efficiency (T-RL orientation) vs wild-type transposon end (log2 (normalized fold change)); transposon end mutated: left end; higher = more efficient transposition; conditions: with VchCAST RNA-guided transposition machinery (E. coli BL21(DE3) host, lacZ target)
How it was run: as §1

Variant	relative integration efficiency (log2) [1]	relative integration efficiency (log2) [2]
CG G13A	0.397 ± 0.29	0.195 ± 0.069
CG G13T	-0.887 ± 0.83	0.0664 ± 0.041
CG G13C	-0.392 ± 0.57	0.0316 ± 0.11
CG A107C T108G A109C T110G	-2.3 ± 1.2	-1.64 ± 0.79
CG C72A A73C T74G A75C	-2.39 ± 1.6	-2.27 ± 0.64
CG A92T A93T	-0.29 ± 0.86	-0.445 ± 0.23
CG G4C T5A	0.189 ± 0.31	0.0402 ± 0.15
CG A119C T120G	-0.429 ± 1.1	-0.131 ± 0.072
CG A119C T120G C121A G122T A123C G124T T125G	-0.964 ± 0.063	-0.304 ± 0.022
CG C17G C18G	-0.437 ± 0.49	-0.313 ± 0.33
CG A119T T120A	-0.0736 ± 0.29	-0.226 ± 0.056
CG C72G A73T	-1.6 ± 1.4	-1.44 ± 0.73
TG G24A T30A T76A T78G C87A	0.0926 ± 0.5	0.0283 ± 0.13
TG G24A T30A T76A T78A T84A C87A	0.236 ± 0.09	0.0157 ± 0.17
CG C72G A73T T74A A75T	-1.75 ± 0.9	-1.77 ± 0.81
CG C60A C61A	0.547 ± 0.41	0.353 ± 0.049
CG A101C	-1.67 ± 0.92	-1.29 ± 0.49
CG A101T	-0.501 ± 0.29	-0.599 ± 0.23
CG A101G	-1.62 ± 1.1	-1.22 ± 0.47
CG A101T A102T	-0.713 ± 0.59	-0.513 ± 0.27
CG G4A	-0.235 ± 0.11	-0.0961 ± 0.035
CG G4C	0.0545 ± 0.11	-0.131 ± 0.036
CG G4T	0.222 ± 0.16	-0.172 ± 0.075
CG A95G	-1.23 ± 0.42	-0.845 ± 0.39

Variant	relative integration efficiency (log2) [1]	relative integration efficiency (log2) [2]
CG A95T	-0.598 ± 0.89	-0.00814 ± 0.24
CG A95C	-0.179 ± 0.35	-0.318 ± 0.063
CG C72A A73C	-2.02 ± 0.55	-2.16 ± 0.91
CG G13C C14G A15T A16T	-1.69 ± 1.2	-1.03 ± 0.47
CG A123C G124T T125G	-0.277 ± 0.038	-0.171 ± 0.067
CG C49G G51T C52G C55T A58T A59T C60A C61T A62G	-4.34 ± 2.5	-4.9 ± 0.68
CG C17G C18G A19T T20A	-1.28 ± 0.64	-1.56 ± 0.94
CG C49G A50T	-0.94 ± 0.92	-0.509 ± 0.62
CG G24C	-0.15 ± 0.17	-0.164 ± 0.021
CG G24A	0.726 ± 0.12	0.3 ± 0.075
CG C97G C98G A99T T100A	-0.482 ± 0.85	-1.36 ± 0.79
CG A96T C97G C98G A99T	-2 ± 1.1	-2.05 ± 0.9
CG C121A G122T A123C G124T T125G	0.905 ± 0.042	0.666 ± 0.12
CG C71G C72G	-1.67 ± 1.9	-1.32 ± 0.57
CG G24A T30A	0.342 ± 0.15	0.261 ± 0.027
CG C68G A69T	-0.877 ± 0.31	-1.02 ± 0.41
CG C72T	-0.0498 ± 0.25	-0.0527 ± 0.2
CG C72A	-0.613 ± 1	-0.492 ± 0.48
CG C72G	-0.262 ± 0.52	-0.201 ± 0.43
CG C63T	0.266 ± 0.018	0.0804 ± 0.061
CG C63G	0.324 ± 0.23	0.223 ± 0.039
CG C63A	0.438 ± 0.02	0.237 ± 0.012
CG C97A C98A	-1.76 ± 0.82	-1.7 ± 0.77
CG A118T	-0.185 ± 0.24	-0.0188 ± 0.11

Variant	relative integration efficiency (log2) [1]	relative integration efficiency (log2) [2]
CG A118C	0.243 ± 0.42	-0.0886 ± 0.026
CG A118G	-0.0561 ± 0.73	-0.144 ± 0.097
CG C61G A62T	-0.236 ± 0.51	-0.362 ± 0.074
CG A92C A93C	-0.222 ± 0.86	-0.331 ± 0.24
CG C98A A99C T100G A101C	-1.33 ± 0.029	-2.27 ± 0.92
CG C97G C98G	-1.23 ± 0.91	-1.07 ± 0.5
CG C17A C18A A19C T20G	-3.01 ± 0.42	-2.69 ± 0.85
TG G24A T30A T76A A77G C87T	0.724 ± 0.54	0.0845 ± 0.24
CG A92C A93C C94A A95C	-1.74 ± 0.33	-1.09 ± 0.75
CG C97T	-0.391 ± 0.74	-0.324 ± 0.13
CG C97G	-0.468 ± 0.14	-0.455 ± 0.23
CG C97A	-0.467 ± 1.2	-0.235 ± 0.37
CG C63A A64C	0.557 ± 0.37	-0.135 ± 0.079
CG A99T T100A	-1.17 ± 0.8	-1.19 ± 0.47
CG A109G	-0.737 ± 0.88	-0.662 ± 0.16
CG A109T	0.223 ± 0.47	0.209 ± 0.39
CG A109C	0.0163 ± 0.22	-0.193 ± 0.42
CG C60G	0.358 ± 0.26	-0.0988 ± 0.017
CG C60A	0.503 ± 0.15	0.0973 ± 0.034
CG C60T	0.161 ± 0.34	-0.00379 ± 0.0024
CG A109T T110A T111A T112A	-1.2 ± 0.55	-1.22 ± 0.46
CG G10C A11T	< -10	0.833 ± 0.19
CG A95T A96T	-0.891 ± 0.57	-0.379 ± 0.28
CG A107C T108G	-0.997 ± 1.2	-1.01 ± 0.6

Variant	relative integration efficiency (log2) [1]	relative integration efficiency (log2) [2]
CG A109C T110G	-1.25 ± 1.3	-0.936 ± 0.53
CG C60G C61G	0.337 ± 0.57	-0.185 ± 0.23
CG C18A	0.107 ± 0.17	-0.181 ± 0.016
CG C18G	0.0813 ± 0.047	0.259 ± 0.083
CG C18T	0.181 ± 0.51	0.16 ± 0.08
CG C63G A64T	0.148 ± 0.19	0.1041 ± 0.00033
CG C55A T56G	-0.293 ± 0.89	0.0947 ± 0.38
CG C14A A15C A16C C17A	-1.81 ± 1	-1.38 ± 0.6
CG C49G A50T G51C C52G	-1.24 ± 0.76	-1.58 ± 0.9
CG A118C A119C T120G C121A G122T A123C G124T T125G	-0.0272 ± 0.24	0.0769 ± 0.16
CG C14A A15C	-0.0841 ± 0.4	-0.0319 ± 0.34
CG C52A A53C A54C C55A	0.277 ± 0.23	0.0708 ± 0.21
CG C60G C61G A62T C63G	0.27 ± 0.29	-0.0479 ± 0.14
CG C49A	-0.195 ± 0.69	0.178 ± 0.24
CG C49G	0.811 ± 0.52	0.127 ± 0.33
CG C49T	-0.164 ± 0.35	0.0612 ± 0.15
CG C55G T56A	0.0301 ± 0.44	0.0691 ± 0.024
CG A101C A102C	-1.64 ± 0.96	-1.55 ± 0.55
CG G13T C14A A15C A16C	-1.69 ± 1.1	-0.389 ± 0.12
CG C18G A19T	-1.25 ± 0.29	-1.13 ± 0.5
CG G4T T5G	-0.37 ± 0.2	-0.366 ± 0.035
CG C18G A19T T20A A21T	-2.57 ± 1.4	-1.37 ± 0.56
CG C98G A99T	-1.62 ± 0.4	-1.51 ± 0.56
CG C68A A69C	-0.147 ± 0.86	-0.266 ± 0.23

Variant	relative integration efficiency (log2) [1]	relative integration efficiency (log2) [2]
CG C98G A99T T100A A101T	-1.8 ± 0.21	-2 ± 0.73
CG A107T T108A	-0.991 ± 0.38	-0.981 ± 0.55
CG C94A A95C	-0.623 ± 0.98	-0.474 ± 0.4
CG A93T C94G	-1.04 ± 0.89	-1.35 ± 0.65
CG C71A C72A A73C T74G	-2.28 ± 1.8	-2.51 ± 1
CG G7T T8G	< -10	-7.23 ± 1.1
CG C68G A69T A70T C71G	-0.963 ± 0.71	-1.93 ± 0.91
CG A118T A119T	0.266 ± 0.26	-0.158 ± 0.014
CG A96T	-0.52 ± 0.14	-0.314 ± 0.13
CG A96C	0.848 ± 0.0087	0.7239 ± 0.0024
CG A96G	-1.06 ± 0.18	-0.704 ± 0.32
CG A109T T110A	-0.674 ± 0.43	-0.271 ± 0.27
CG C60A C61A A62C C63A	0.51 ± 0.29	0.406 ± 0.095
CG G13C C14G	-0.831 ± 0.62	-0.232 ± 0.36
CG C55G T56A T57A A58T	-2.28 ± 0.67	-0.983 ± 0.39
CG A109C T110G T111G T112G	-1.67 ± 0.36	-1.4 ± 0.41
CG G7A	-0.532 ± 0.023	-0.156 ± 0.15
CG G7C	-0.0662 ± 0.49	-0.11 ± 0.25
CG G7T	-4.09 ± 0.17	-2.59 ± 0.72
CG C97A C98A A99C T100G	-1.52 ± 0.82	-2.58 ± 1
